# Substrate: O=CO
# Test: purified protein, by the assay type
protein,measurement,setting,value
"Desulfovibrio vulgaris Hildenborough (DvH) FDH2, recombinant Strep-tag II-tagged (FDH2^Rec), large subunit DVU2482 SEQ ID NO: 31, small subunit DVU2481 SEQ ID … (protein) AELKIAKAKVTPSVCCFCAVGCGLLVYTDTQTGRSINIEGDPDHPTNEGTLCPKGASIWQTTERSKRVTKVLYRAPGAAAWEEKSWDWALPRIARKIKETRDATFELTNDKGQTVNRTRGIASVGSAAVDNEEGWLMQAMMRALGLVYIESHARIUHSSTVGALAESYGRGAMTNHWIDLKNSDVILIMGSNAAENHPISFKWVTRAQERGATLIHVDPRFTRTSAKADIHAHIRSGTDIAFFGGLIRYIMENDLFFRQYVVDYTNASYIVGADYGFADGLFTGFDAEKGTYNTKKWAFAADENGMTLKDPTLNDPRCVFQLMKAHYARYDRKTVSDVTGISEEQLATLWSTFASTGKPDRAGTILYAMGQCQHTVGVQNIRALSMIQLLLGNIGIAGGGVNALRGESNVQGTTDISLLCDNLSGYLPTPKASWATFDDYVKGTTPVDKDPKSANWWSNRGKYLASYMKSVYPTASHQDGYLWHPKVDDGKITDYSWLQIFERMSKGGFKGAFVWGQNPCAGGANAGKNRKAMETLDWMVVVNLFENESSLFWKGPGVDPAKVKTEVFFLPACMSVEKGGSIANSGRWLQWREPGPKPMGDSRSDGDIVLDLYDEIRKLYREEKGAFPEPVLALDTDYRTDGKYDHHKVAKTLNGKFLTDVTIGDKTYKAGQQVPGFAMLQADGSTTSGCWIFTGCYTDAGNMMARRDRTQTPEQAAIGLFPNWSYAWPANRRILYNRAAVDMTGKPFDPKRAVIAWNGEKWVGDVPDGGWKPGEKLPFIMIREGRGQLFGPGRVDGPFPEHYEPFESPLESHPFSKQRVNPTALAFSHEPKAVRDKRYPFICTTYRVTEQWQSGTMTRNTGWLKEMQPEGFCEISRELAKELGIANGDAVVLESLRGKVQVVAIVTPRLKPFKVMGEVMHEVGIPWQFGWGQHVGKGDSANLLSPSVGDPNTGIPETKVFMVNLRKA",Km,"other: 2 mM BV (anaerobic), full progress curve, calculated from kcat and kcat/Km, pH 8.0, 25.0 °C",2.1 ± 0.1 µM
same,Km,"other: BV (2 mM), anaerobic, initial velocities, 3 replicates, pH 8.0, 25 °C",3.5 ± 0.9 µM
same,Km,"other: BV (20 mM), anaerobic, initial velocities, 3 replicates, pH 8.0, 25 °C",7 ± 3 µM
same,Km,"other: DCPIP (air), full progress curve, calculated from kcat and kcat/Km, pH 8.0",4.5 ± 0.4 µM
same,Km,"other: DCPIP (anaerobic), full progress curve, calculated from kcat and kcat/Km, pH 8.0",3.7 ± 0.3 µM
same,Km,"other: PES/DCPIP, air, initial velocities, 10 replicates, pH 8.0",7 ± 1 µM
same,Km,"other: PES/DCPIP, anaerobic, initial velocities, 5 replicates, pH 8.0",5.5 ± 0.5 µM
